From the supplement of paper PMC11908140

B1: library; numbered along this chain (parent)
chain: MRKPRAAVGSGHRKQAASQEGRQKHAKNNSQAKPSACDGLARQPEEVVLQASVSSYHLFRDVAEVTAFRGSLLSWYDQEKRDLPWRRRAEDEMDLDRRAYAVWVSEVMLQQTQVATVINYYTGWMQKWPTLQDLASASLEEVNQLWAGLGYYSRGRRLQEGARKVVEELGGHMPRTAETLQQLLPGVGRYTAGAIASIAFGQATGVVDGNVARVLCRVRAIGADPSSTLVSQQLWGLAQQLVDPARPGDFNQAAMELGATVCTPQRPLCSQCPVESLCRARQRVEQEQLLASGSLSGSPDVEECAPNTGQCHLCLPPSEPWDQTLGVVNFPRKASRKPPREESSATCVLEQPGALGAQILLVQRPNSGLLAGLWEFPSVTWEPSEQLQRKALLQELQRWAGPLPATHLRHLGEVVHTFSHIKLTYQVYGLALEGQTPVTTVPPGARWLTQEEFHTAAVSTAMKKVFRVYQGQQPGTCMGSKRSQVSSPCSRKKPRMGQQVLDNFFRSHISTDAHSLNSAAQ

Variants of: B1
Assay: 8OG:A repair function score (normalized; synonymous = 0, nonsense = -1) (normalized log-likelihood score); higher = more repair activity (WT-like)
Settings: with 8OG:A DNA repair reporter (GFP) in HEK-293 MUTYH KO cells
Summary of the method: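 MUTYH knockout HEK-293 cells carrying lentiviral MUTYH cDNA NNN codon-scan libraries were grown with 10 pg/ml doxycycline and co-transfected with mCherry and a GFP reporter of 8OG:A repair. Viable mCherry+ cells were sorted at 72 h into GFP+ (repair) and GFP− bins, with three replicates per tile, and tile amplicons were sequenced. Rosace fitness scores for each tile were turned into a normalized repair function score anchored on the synonymous and nonsense distributions. Synonymous medians were set to 0 and nonsense medians to -1, and variants below 300 counts per million at the start were dropped.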

Variant	8OG:A repair function score
MRKPRAAVGSGHRKQAASQEGRQKHAKNNSQAKPSACDGLARQPEEVVLQASVSSYHLFRDVAEVTAFRGSLLSWYDQEKRDLPWRRRAEDEMDLDRRAYAVWVSEVMLQQTQVATVINYYTGWMQKWPTLQDLASASLEEVNQLWAGLGYYSRGRRLQEGARKVVEELGGHMPRTAETLQQLLPGVGRYTAGAIASIAFGQATGVVDGNVARVLCRVRAIGADPSSTLVSQQLWGLAQQLVDPARPGDFNQAAMELGATVCTPQRPLCSQCPVESLCRARQRVEQEQLLASGSLSGSPDVEECAPNTGQCHLCLPPSEPWDQTLGVVNFPRKASRKPPREESSATCVLEQPGALGAQILLVQRPNSGLLAGLWEFPSVTWEPSEQLQRKALLQELQRWAGPLPATKLRHLGEVVHTFSHIKLTYQVYGLALEGQTPVTTVPPGARWLTQEEFHTAAVSTAMKKVFRVYQGQQPGTCMGSKRSQVSSPCSRKKPRMGQQVLDNFFRSHISTDAHSLNSAAQ [H407K]	-0.104
MRKPRAAVGSGHRKQAASQEGRQKHAKNNSQAKPSACDGLARQPEEVVLQASVSSYHLFRDVAEVTAFRGSLLSWYDQEKRDLPWRRRAEDEMDLDRRAYAVWVSEVMLQQTQVATVINYYTGWMQKWPTLQDLASASLEEVNQLWAGLGYYSRGRRLQEGARKVVEELGGHMPRTAETLQQLLPGVGRYTAGAIASIAFGQATGVVDGNVARVLCRVRAIGADPSSTLVSQQLWGLAQQLVDPARPGDFNQAAMELGATVCTPQRPLCSQCPVESLCRARQRVEQEQLLASGSLSGSPDVEECAPNTGQCHLCLPPSEPWDQTLGVVNFPRKASRKPPREESSATCQLEQPGALGAQILLVQRPNSGLLAGLWEFPSVTWEPSEQLQRKALLQELQRWAGPLPATHLRHLGEVVHTFSHIKLTYQVYGLALEGQTPVTTVPPGARWLTQEEFHTAAVSTAMKKVFRVYQGQQPGTCMGSKRSQVSSPCSRKKPRMGQQVLDNFFRSHISTDAHSLNSAAQ [V348Q]	-1.64
MRKPRAAVGSGHRKQAASQEGRQKHAKNNSQAKPSACDGLARQPEEVVLQASVSSYHLFRDVAEVTAFRGSLLSWYDQEKRDLPWRRRAEDEMDLDRRAYAVWVSEVMLQQTQVATVINYYTGWMQKWPTLQDLASASLEEVNQLWAGLGYYSRGRRLQEGARKVVEELGGHMPRTAETLQQLLPVVGRYTAGAIASIAFGQATGVVDGNVARVLCRVRAIGADPSSTLVSQQLWGLAQQLVDPARPGDFNQAAMELGATVCTPQRPLCSQCPVESLCRARQRVEQEQLLASGSLSGSPDVEECAPNTGQCHLCLPPSEPWDQTLGVVNFPRKASRKPPREESSATCVLEQPGALGAQILLVQRPNSGLLAGLWEFPSVTWEPSEQLQRKALLQELQRWAGPLPATHLRHLGEVVHTFSHIKLTYQVYGLALEGQTPVTTVPPGARWLTQEEFHTAAVSTAMKKVFRVYQGQQPGTCMGSKRSQVSSPCSRKKPRMGQQVLDNFFRSHISTDAHSLNSAAQ [G186V]	-0.852
MRKPRAAVGSGHRKQAASQEGRQKHAKNNSQAKPSACDGLARQPEEVVLQASVSSYHLFRDVAEVTAFRGSLLSWYDQEKRDLPWRRRAEDEMDLDRRAYAVLVSEVMLQQTQVATVINYYTGWMQKWPTLQDLASASLEEVNQLWAGLGYYSRGRRLQEGARKVVEELGGHMPRTAETLQQLLPGVGRYTAGAIASIAFGQATGVVDGNVARVLCRVRAIGADPSSTLVSQQLWGLAQQLVDPARPGDFNQAAMELGATVCTPQRPLCSQCPVESLCRARQRVEQEQLLASGSLSGSPDVEECAPNTGQCHLCLPPSEPWDQTLGVVNFPRKASRKPPREESSATCVLEQPGALGAQILLVQRPNSGLLAGLWEFPSVTWEPSEQLQRKALLQELQRWAGPLPATHLRHLGEVVHTFSHIKLTYQVYGLALEGQTPVTTVPPGARWLTQEEFHTAAVSTAMKKVFRVYQGQQPGTCMGSKRSQVSSPCSRKKPRMGQQVLDNFFRSHISTDAHSLNSAAQ [W103L]	-0.377
MRKPRAAVGSGHRKQAASQEGRQKHAKNNSQAKPSACDGLARQPEEVVLQASVSSYHLFRDVAEVTAFRGSLLSWYDQEKRDLPWRRRAEDEMDLDRRAYAVWVSEVMLQQTQVATVINYYTGWMQKWPTLQDLASASLEEVNQLWAGLGYYSRGRRLQEGARKVVEEPGGHMPRTAETLQQLLPGVGRYTAGAIASIAFGQATGVVDGNVARVLCRVRAIGADPSSTLVSQQLWGLAQQLVDPARPGDFNQAAMELGATVCTPQRPLCSQCPVESLCRARQRVEQEQLLASGSLSGSPDVEECAPNTGQCHLCLPPSEPWDQTLGVVNFPRKASRKPPREESSATCVLEQPGALGAQILLVQRPNSGLLAGLWEFPSVTWEPSEQLQRKALLQELQRWAGPLPATHLRHLGEVVHTFSHIKLTYQVYGLALEGQTPVTTVPPGARWLTQEEFHTAAVSTAMKKVFRVYQGQQPGTCMGSKRSQVSSPCSRKKPRMGQQVLDNFFRSHISTDAHSLNSAAQ [L169P]	-0.645
MRKPRAAVGSGHRKQAASQEGRQKHAKNNSQAKPSACDGLARQPEEVVLQASVSSYHLFRDVAEVTAFRGSLLSWYDQEKRDLPWRRRAEDEMDLDRRAYAVWVSEVMLQQTQVATVINYYTGWMQKWPTLQDLASASLEEVNQLWAGLGYYSRGRRLQEGARKVVEELGGHMPRTAETLQQLLPGVGRYTAGAIASIAFGQATGVVDGNVARVLCRVRAIGADPSSTLVSQQLWGLAQQLVDPARPGDFNQAAMELGATVCTPQRPLCSQCPVESLCRARQRVEQEQLLASGSLSGSPDVEECAPNTGQCHLCLPPSEPWKQTLGVVNFPRKASRKPPREESSATCVLEQPGALGAQILLVQRPNSGLLAGLWEFPSVTWEPSEQLQRKALLQELQRWAGPLPATHLRHLGEVVHTFSHIKLTYQVYGLALEGQTPVTTVPPGARWLTQEEFHTAAVSTAMKKVFRVYQGQQPGTCMGSKRSQVSSPCSRKKPRMGQQVLDNFFRSHISTDAHSLNSAAQ [D322K]	0.00699
MRKPRAAVGSGHRKQAASQEGRQKHAKNNSQAKPSACDGLARQPEEVVLQASVSSYHLFRDVAEVTAFRGSLLSWYDQEKRDLPWRRRAEDEMDLDRRAYAVWVSEVMLQQTQVATVINYYTGWMQKWPTLQDLASASLEEVNQLWAGLGYYSRGRRLQEGARKVVEELGGHMPRTAETLQQLLPGVGRYTAGAIASIAFGQATGVVDGNVARVLCRVRAIGADPSSTLVSQQLWGLAQQLVDPARPGDFNQAAMELGATVCTPQRPLCSQCPVESLCRARQRVEQEQLLASGSLSGSPDVEECAPNTGQCHLCLPPSEPWDQTLGVVNFPRKASRKPPREESSATCVLPQPGALGAQILLVQRPNSGLLAGLWEFPSVTWEPSEQLQRKALLQELQRWAGPLPATHLRHLGEVVHTFSHIKLTYQVYGLALEGQTPVTTVPPGARWLTQEEFHTAAVSTAMKKVFRVYQGQQPGTCMGSKRSQVSSPCSRKKPRMGQQVLDNFFRSHISTDAHSLNSAAQ [E350P]	-1.12
MRKPRAAVGSGHRKQAASQEGRQKHAKNNSQAKPSACDGLARQPEEVVLQASVSSYHLFRDVAEVTAFRGSLLSWYDQEKRDLPWRRRAEDEMDLDRRAYAVWVSEVMLQQTQVATVINYYTGWMQKWPTLQDLASASLEEVNQLWAGLGYYSRGRRLQEGARKVVEELGGHMLRTAETLQQLLPGVGRYTAGAIASIAFGQATGVVDGNVARVLCRVRAIGADPSSTLVSQQLWGLAQQLVDPARPGDFNQAAMELGATVCTPQRPLCSQCPVESLCRARQRVEQEQLLASGSLSGSPDVEECAPNTGQCHLCLPPSEPWDQTLGVVNFPRKASRKPPREESSATCVLEQPGALGAQILLVQRPNSGLLAGLWEFPSVTWEPSEQLQRKALLQELQRWAGPLPATHLRHLGEVVHTFSHIKLTYQVYGLALEGQTPVTTVPPGARWLTQEEFHTAAVSTAMKKVFRVYQGQQPGTCMGSKRSQVSSPCSRKKPRMGQQVLDNFFRSHISTDAHSLNSAAQ [P174L]	-0.947
MRKPRAAVGSGHRKQAASQEGRQKHAKNNSQAKPSACDGLARQPEEVVLQASVSSYHLFRDVAEVTAFRGSLLSWYDQEKRDLPWRRRAEDEMDLDRRAYAVWVSEVMLQQTQVATVINYYTGWMQKWPTLQDLASASLEEVNQLWAGLGYYSRGRRLQEGARKVVEELGGHMPRTAETLQQLLPGVGRYTAGAIASIAFGQATGVVDGNVARVLCRVRAIGADPSSTLVSQQLWGLAQQLVDPARPGDFNQAAMELGATVCTPQRPLCSQCPVESLCRARQRVEQEQLLASGSLSGSPDVEECAPNTGQCHLCLPPSEPWDQTLGVVNFPRKASRKPPREESSATCVLEQPGALGAQILLVQRPNSGLLAGLWEFPSVTWEPSEQLQRKALLQELQRWAGPLPATHLRHLGEVVHRFSHIKLTYQVYGLALEGQTPVTTVPPGARWLTQEEFHTAAVSTAMKKVFRVYQGQQPGTCMGSKRSQVSSPCSRKKPRMGQQVLDNFFRSHISTDAHSLNSAAQ [T417R]	0.199
MRKPRAAVGSGHRKQAASQEGRQKHAKNNSQAKPSACDGLARQPEEVVLQASVSSYHLFRDVAEVTAFRGSLLSWYDQEKRDLPWRRRAEDEMDLDRRAYAVWVSEVMLQQTQVATVINYYTGWMQKWPTLQDLASASLEEVNQLWAGLGYYSRGRRLQEGARKVVEELGGHMPRTAETLQQLLPGVGRYTAGAIASIAFGQATGVVDGNVARVLCRVRAIGADPSSTLVSQQLWGLAQQLVDPARPGDFNQAAMELGATVCTPQRPLCSQCPVESLCRARQRVEQEQLLASGSLSGSPDVEECAPNTGQCHLCLPPSEPWDQTLGVVNFPRKASRKPPREESSATCVLEQPGALGAQILLVQRPNSGLLAGLWEFPSVTWEPSEQLQRKALLQELQRWAGPLPATHLRHLGEVVHTFSHIKLTYQVYGLALEGQTPVTTVPPGARWLTQEEFHTAAVSTAMKKVFRVYQGQQPGTCMGSKRSQVSSPCSRKKPRMGQQVLDNFFRSHISTQAHSLNSAAQ [D512Q]	-0.02
MRKPRAAVGSGHRKQAASQEGRQKHAKNNSQAKPSACDGLARQPEEVVLQASVSSYHLFRDVAEVTAFRGSLLSWYDQEKRDLPWRRRAEDEMDLDRRAYAVWVSEVMLQQTQVATVINYYTGWMQKWPTLQDLASASLEEVNQLWAGLGYYSRGRRLQEGARKVVEELGGHMPRTAETLQQLLPGVGRYTAGAIASIAFGQATGVVDGNVARVLCRVRAYGADPSSTLVSQQLWGLAQQLVDPARPGDFNQAAMELGATVCTPQRPLCSQCPVESLCRARQRVEQEQLLASGSLSGSPDVEECAPNTGQCHLCLPPSEPWDQTLGVVNFPRKASRKPPREESSATCVLEQPGALGAQILLVQRPNSGLLAGLWEFPSVTWEPSEQLQRKALLQELQRWAGPLPATHLRHLGEVVHTFSHIKLTYQVYGLALEGQTPVTTVPPGARWLTQEEFHTAAVSTAMKKVFRVYQGQQPGTCMGSKRSQVSSPCSRKKPRMGQQVLDNFFRSHISTDAHSLNSAAQ [I221Y]	-0.63
MRKPRAAVGSGHRKQAASQEGRQKHAKNNSQAKPSACDGLARQPEEVVLQASVSSYHLFRDVAEVTAFRGSLLSWYDQEKRDLPWRRRAEDEMDLDRRAYAVWVSEVMLQQTQVATVINYYTGWMQKWPTLQDLASASLEEVNQLWAGLGYYSRPRRLQEGARKVVEELGGHMPRTAETLQQLLPGVGRYTAGAIASIAFGQATGVVDGNVARVLCRVRAIGADPSSTLVSQQLWGLAQQLVDPARPGDFNQAAMELGATVCTPQRPLCSQCPVESLCRARQRVEQEQLLASGSLSGSPDVEECAPNTGQCHLCLPPSEPWDQTLGVVNFPRKASRKPPREESSATCVLEQPGALGAQILLVQRPNSGLLAGLWEFPSVTWEPSEQLQRKALLQELQRWAGPLPATHLRHLGEVVHTFSHIKLTYQVYGLALEGQTPVTTVPPGARWLTQEEFHTAAVSTAMKKVFRVYQGQQPGTCMGSKRSQVSSPCSRKKPRMGQQVLDNFFRSHISTDAHSLNSAAQ [G155P]	-0.0172
